Each block holds one molecule with its values, some of them ahead of it.
Columns and labels:
[1] = cited from earlier work
[2] = test system: coagulation of human blood; test: Cardiopulmonary bypass circuit simulation (arterio-venous loop); type: biochemical; conditions: whole duration of the bypass circuit experiment, 37° C.
Description: (§1) In the examples below, studies were carried out to examine effects of dabigatran on coagulation of human blood. The studies were approved by the Institutional Review Board (University of Rochester RSRB, Rochester, NY) and informed consent was obtained from all subjects. Six healthy non-pregnant donors between 18-70 years old were recruited for the study. Subjects were excluded from the recent infections, disorders of immune system, hematological disorders including prior history of clotting issues, malignancies. Current medications and herbal supplements were recorded. Standard phlebotomy procedures performed by trained personal were used to collect no more than 250 ml of whole blood in two months. The collected blood was anticoagulated with 0.109 M Na citrate and tested within four hours. Dabigatran was purchased from CLEARSYNTH (Ontario, Canada). The study was initiated in three steps: Effect of high-dose Dabigatran on coagulation of human blood in-vitro; Evaluation of the anticoagulant effect of Dabigatran in the Chandler Loop System; and Anticoagulation effect of Dabigatran in the Cardiopulmonary bypass circuit simulation. […]

[3] = test system: coagulation of human blood; test: Thromboelastography, TEG 5000 rapid TEG test, clotting/reactive time (R); type: biochemical; conditions: human blood in vitro
Description: In the examples below, studies were carried out to examine effects of dabigatran on coagulation of human blood. The studies were approved by the Institutional Review Board (University of Rochester RSRB, Rochester, NY) and informed consent was obtained from all subjects. Six healthy non-pregnant donors between 18-70 years old were recruited for the study. Subjects were excluded from the recent infections, disorders of immune system, hematological disorders including prior history of clotting issues, malignancies. Current medications and herbal supplements were recorded. Standard phlebotomy procedures performed by trained personal were used to collect no more than 250 ml of whole blood in two months. […]
Methods: Dabigatran (CLEARSYNTH, Catalog No. CS-O-03403; CAS number 211914-51-1) was initially dissolved in 0.1M HCL to 16.6 mg/ml, followed by diluting to 240 μg/ml, using 50% DMSO. […] TEG 5000 (rapid TEG test) and ROTEM (ex-tem test) were used to measure anticoagulation and the corresponding reactive time (R) and coagulation time (CT) were recorded.
(§2) Methods: Dabigatran was initially dissolved in 0.1 M HCL, followed by diluting 1:1 with DMSO/H2O to prepare four stock solutions: […]. […] Blood clotting was monitored for 120 minutes. […]
Each of the dabibatran-containing blood sample described above was examined for clotting time R measured by TEG in the manner described above.

[4] = test system: coagulation of human blood; test: Chandler Loop System, clot formation in circulating blood; type: biochemical; conditions: Idarucizumab added after 2 hours of circulation; immediate clotting of the blood in the loop
Description: as §1, §2

- plasma levels of Dabigatran during the experimental procedure (Mass Spectrometry) [2]: remain stable
Molecule: [H]/N=C(/N)c1ccc(NCc2nc3cc(C(=O)N(CCC(=O)O)c4ccccn4)ccc3n2C)cc1 [Dabigatran]
- normal concentrations found in patients [1]: 180 ng/mL

B1: Idarucizumab: anti-dabigatran antibody, reversal agent (antibody, chains of the INN, looked up, V domains shown)
VH: QVQLQESGPGLVKPSETLSLTCTVSGFSLTSYIVDWIRQPPGKGLEWIGVIWAGGSTGYNSALRSRVSITKDTSKNQFSLKLSSVTAADTAVYYCASAAYYSYYNYDGFAYWGQGTLVTVSS
VL: DVVMTQSPLSLPVTLGQPASISCKSSQSLLYTDGKTYLYWFLQRPGQSPRRLIYLVSKLDSGVPDRFSGSGSGTDFTLKISRVEAEDVGVYYCLQSTHFPHTFGGGTKVEIK
modifications: Fab
notes: anti-dabigatran antibody, reversal agent
- reversal of the anticoagulation effect of Dabigatran ([3]; 125 μg/ml Idarucizumab): successfully reversed
- Idarucizumab concentration required to reverse the highest concentrations of Dabigatran ([3]; highest Dabigatran concentrations): 2-4 times normal plasma concentrations
- reversal of the anticoagulation action of Dabigatran in the Chandler loop [4]: effectively reversed
